What was measured:
[1] = biological target: NatR anti-toxin (PA1029), co-expressed with His-tagged NatT in E. coli (Pseudomonas aeruginosa); assay: mass photometry; co-purified NatR-NatT complexes at a final concentration of 10 nM, 50 mM Bicine pH 8.5, 50 mM KCl, Refeyn OneMP
[2] = biological target: NatT toxin (PA1030), His-tagged, wild type (Pseudomonas aeruginosa) (UniProt Q9I4U4); assay: as above
[3] = biological target: NatR anti-toxin (PA1029), co-expressed with His-tagged NatT in E. coli (Pseudomonas aeruginosa); assay: crystal structure; NatR-NatT wild-type complex, sitting drop, 2.5 mg/ml, 0.2 M sodium sulfate, 0.1 M Bis-Tris propane 7.5, 20% PEG 3350, 20 C
[4] = biological target: the molecule itself; assay: as above

Molecule | stoichiometry N [1] | stoichiometry N (NatR per NatT) [2] | stoichiometry N [3] | stoichiometry N [4]
NatR anti-toxin (PA1029), co-expressed with His-tagged NatT in E. coli (natural protein) | 2 | 2 | 2 | 
NatT toxin (PA1030), His-tagged, wild type (enzyme, also called NAD+ degrading toxin; RES domain toxin; source: E. coli BL21 (DE3), pRSF-Duet-1, co-expressed with NatR, purified as a complex (HisTrap, SEC)) SEIWRQCKGERHIRPLQGRLVRLVESQEQVATLQLVDTLEEQALLEELLESSKPPVPADAEPLHYLLKTPFRYPPLRWGSRFGRRHEPSLFYAALKLETAMAESAYYRCVLWSGMVVPPPSGRILSEHASFEAGWKVERGIRLQAPPFSDHEAALTDIADYRAPQELGSAMRSAGVQAFEYRSARCPERGCNVALFTPAAFTEKRPRNLTPWLCETTAGYVAFKPAHVPGSPKIFSWELFLVDGKLPHPA |  |  |  | 2
